Where a chain is given by its changes, count along the chain named. Names may count otherwise.

Data set [1] concerns the target recombinant, depyrogenated truncated Tissue Factor (amino acids 1-219), secreted into the periplasm of E. coli from vector pswc7 (human) (UniProt P13726). Kind of data set: cell-based or functional assay.
Data set [2] deals with Mouse bEnd.3 endothelial cells. Nature of the data set: PS induction by H2O2. The format is cell-based. On the procedure: Mouse bEnd.3 endothelial cells were seeded at an initial density of 50,000 cells/well. Twenty-fours later cells were incubated with increasing concentrations of H2O2 (from 10 μM to 500 μM) for 1 hour at 37° C. or left untreated. At the end of the incubation, cells were washed 3 times with PBS containing 0.2% gelatin and fixed with 0.25% glutaraldehyde. Identical wells were either stained with anti-PS IgM or trypsinized and evaluated for viability by the Trypan Blue exclusion test. For the anti-PS staining, after blocking with 2% gelatin for 10 min., cells were incubated with 2 μg/ml of anti-PS antibody, followed by detection with anti-mouse IgM-HRP conjugate.

For data set [3], the system named is citrated mouse or human plasma. Nature of the data set: In vitro coagulation assay on A20 cells. The format is cell-based. The settings on record: for coagulation times versus tTF219 and Factor VIIa at the same concentrations: Factor VIIa at 1 nM or greater; for concentration at which plasma coagulated in 50 seconds: localized on A20 cells via B21-2/10H10.
Data set [4] concerns HT29 human colorectal carcinoma. Kind of data set: Anti-tumor effects and tumor necrosis, HT29. The format is in vivo, BALB/c nu/nu mice. The settings on record: small HT29 tumors, single agents, 24 hours.
Data set [5] deals with factor X. Nature of the data set: Factor Xa production assay on A20 cells. The format is cell-based. The settings on record: Factors II, VII and IX present.

Consider Factor VIIa (Sigma) (enzyme), for which, in data set [1], the Factor Xa generation due to Factor VIIa production on bEnd3 cells; stimulation: 0.5 µg/ml LPS; incubation: tTF-VIIa worked out at 6.25 nkat S2222, the Factor Xa generation due to Factor VIIa production on bEnd3 cells; stimulation: 0.5 µg/ml LPS; tTF-VIIa minus sTF was found to be 3.25 nkat S2222, the Factor Xa generation due to Factor VIIa production on bEnd3 cells; stimulation: TNFα; incubation: tTF-VIIa came out at 2.93 nkat S2222 and the Factor Xa generation due to Factor VIIa production on bEnd3 cells; stimulation: TNFα; tTF-VIIa minus sTF was found to be 1.02 nkat S2222. For the same molecule, in data set [1], the Factor Xa generation due to Factor VIIa production on bEnd3 cells; stimulation: medium; incubation: tTF-VIIa was 0.95 nkat S2222, the Factor Xa generation due to Factor VIIa production on bEnd3 cells; stimulation: medium; tTF-VIIa minus sTF was 0.25 nkat S2222, the Factor Xa generation on bEnd3 cells; stimulation: 0.5 µg/ml LPS; incubation: tTF-VIIa is 3.35 nkat S2222 and the Factor Xa generation on bEnd3 cells; stimulation: 0.5 µg/ml LPS; tTF-VIIa minus sTF (background subtracted) worked out at 1.35 nkat S2222. Further, in data set [1], the Factor Xa generation on bEnd3 cells; stimulation: 10 µg/ml LPS; incubation: tTF-VIIa is 4.46 nkat S2222, the Factor Xa generation on bEnd3 cells; stimulation: 10 µg/ml LPS; tTF-VIIa minus sTF (background subtracted) stood at 1.55 nkat S2222, the Factor Xa generation on bEnd3 cells; stimulation: TNFα; incubation: tTF-VIIa came to 1.51 nkat S2222 and the Factor Xa generation on bEnd3 cells; stimulation: TNFα; tTF-VIIa minus sTF (background subtracted) turned out to be 0.84 nkat S2222. In addition, in data set [1], the Factor Xa generation on bEnd3 cells; stimulation: medium; incubation: tTF-VIIa was found to be 0.56 nkat S2222 and the Factor Xa generation on bEnd3 cells; stimulation: medium; tTF-VIIa minus sTF (background subtracted) is 0.16 nkat S2222.
A word on the cell viability: it is a per cent measure of how many cells are alive, often set against a control. A low value points to more harm to the cells. As to `OO` [H2O2], the “cells with PS at the cell surface” value in data set [2] (concentrations as low as 20 μM) is on record as “about 50%”. Further, the “cells with PS translocation” value in data set [2] (concentrations higher than 100 μM, 1 hour) is given as roughly 90%. The same molecule came in with a cell viability in data set [2] (low levels of H2O2 (lower than 100 μM)) of 95%.

B1: tTF219 (G164A): tTF219 with amino acid 164 (Gly) replaced by Ala (protein)
chain: GSGTTNTVAAYNLTWKSTNFKTILEWEPKPVNQVYTVQISTKSGDWKSKCFYTTDTECDLTDEIVKDVKQTYLARVFSYPAGNVESTGSAGEPLYENSPEFTPYLETNLGQPTIQSFEQVGTKVNVTVEDERTLVRRNNTFLSLRDVFGKDLIYTLYYWKSSSSAKKTAKTNTNEFLIDVDKGENYCFSVQAVIPSRTVNRKSTDSPVECMGQEKGEFRE
For the molecule B1, the “coagulation times versus tTF219 and Factor VIIa at the same concentrations” value in data set [3] is reported as “only marginally slower coagulation times”. The “necrosis in tumor sections” value in data set [4] was “some necrosis”.

B2: tTF219 (W158R) (protein)
chain: B1 chain with W159R, A165G
Regarding B2, the “coagulation times versus tTF219 and Factor VIIa at the same concentrations” value in data set [3] is on record as “only marginally slower coagulation times”.

B3: H6-tTF220-cys-C′: tTF219 mutated to encode Ile-Cys after amino acid 219, (His)6 tag (protein)
chain: HHHHHHAMALVPRGSGTTNTVAAYNLTWKSTNFKTILEWEPKPVNQVYTVQISTKSGDWKSKCFYTTDTECDLTDEIVKDVKQTYLARVFSYPAGNVESTGSAGEPLYENSPEFTPYLETNLGQPTIQSFEQVGTKVNVTVEDERTLVRRNNTFLSLRDVFGKDLIYTLYYWKSSSSGKKTAKTNTNEFLIDVDKGENYCFSVQAVIPSRTVNRKSTDSPVECMGQEKGEFRE
Consider B3, for which the “concentration at which plasma coagulated in 50 seconds” value (shortened to “concentration … in 50 seconds”) in data set [3] is 500 pM.

B4: H6-tTF221-cys-C′ dimer: chemically conjugated disulfide dimer of H6-tTF221-cys-C′ (protein)
chain: B3 chain
On to B4, for which the “reduction of coagulation-inducing activity relative to monomer / tTF219” value in data set [3] (less active) is listed as 4 fold.

B5: H6-tTF219-cys-C′: (His)6 tTF219 with a Cys after amino acid 219 (protein)
chain: HHHHHHAMALVPRGSGTTNTVAAYNLTWKSTNFKTILEWEPKPVNQVYTVQISTKSGDWKSKCFYTTDTECDLTDEIVKVKQTYLARVFSYPAGNVESTGSAGEPLYENSPEFTPYLETNLGQPTIQSFEQVGTKVNVTVEDRTLVRRNNTFLSLRDVFGKDLIYTLYYWKSSSSGKKTAKTNTNEFLIDVDKGENYCFSVQAVIPSRTVNRKSTDSPVECMGQEKGEFREC
As for B5, the “concentration … in 50 seconds” value in data set [3] turned out to be 3000 pM.

B6: Fab′-H6—N′-cys-tTF219: Fab′-SS-tTF conjugate (conjugate)
chain: HHHHHHAMALVPRGSCGTTNTVAAYNLTWKSTNFKTILEWEPKPVNQVYTVQISTKSGDWKSKCFYTTDTECDLTDEIVKDVKQTYLARVFSYPAGNVESTGSAGEPLYENSPEFTPYLETNLGQPTIQSFEQVGTKVNVTVEDERTLVRRNNTFLSLRDVFGKDLIYTLYYWKSSSSGKKTAKTNTNEFLIDVDKGENYCFSVQAVIPSRTVNRKSTDSPVECMGQEKGEFRE
modifications: left off: another chain or arm of the molecule; large carriers
For the molecule B6, the “Xa formation relative to H6—N′-cys-tTF219” value in data set [5] is reported as “as active as H6—N′-cys-tTF219 itself”.

B7: Factor VIIa: recombinant human Factor VIIa (protein)
light: ANAFLEELRPGSLERECKEEQCSFEEAREIFKDAERTKLFWISYSDGDQCASSPCQNGGSCKDQLQSYICFCLPAFEGRNCETHKDDQLICVNENGGCEQYCSDHTGTKRSCRCHEGYSLLADGVSCTPTVEYPCGKIPILEKRNASKPQGR
heavy: IVGGKVCPKGECPWQVLLLVNGAQLCGGTLINTIWVVSAAHCFDKIKNWRNLIAVLGEHDLSEHDGDEQSRRVAQVIIPSTYVPGTTNHDIALLRLHQPVVLTDHVVPLCLPERTFSERTLAFVRFSLVSGWGQLLDRGATALELMVLNVPRLMTQDCLQQSRKVGDSPNITEYMFCAGYSDGSKDSCKGDSGGPHATHYRGTWYLTGIVSWGQGCATVGHFGVYTRVSQYIEWLQKLMRSEPRPGVLLRAPFP
B7: the “necrosis in tumor sections” value in data set [4] was “some necrosis”.

B8: tTF221-cys-C′: tTF with Ile-Phe-Cys after amino acid 219, without (His)6 tag (protein)
chain: GSGTTNTVAAYNLTWKSTNFKTILEWEPKPVNQVYTVQISTKSGDWKSKCFYTTDTECDLTDEIVKDVKQTYLARVFSYPAGNVESTGSAGEPLYENSPEFTPYLETNLGQPTIQSFEQVGTKVNVTVEDERTLVRRNNTFLSLRDVFGKDLIYTLYYWKSSSSGKKTAKTNTNEFLIDVDKGENYCFSVQAVIPSRTVNRKSTDSPVECMGQEKGEFREIFC
With B8, the “concentration … in 50 seconds” value in data set [3] is 500 pM.

B9: tTF220-cys-C′: tTF with Ile-Cys after amino acid 219, without (His)6 tag (protein)
chain: GSGTTNTVAAYNLTWKSTNFKTILEWEPKPVNQVYTVQISTKSGDWKSKCFYTTDTECDLTDEIVKDVKQTYLARVFSYPAGNVESTGSAGEPLYENSPEFTPYLETNLGQPTIQSFEQVGTKVNVTVEDERTLVRRNNTFLSLRDVFGKDLIYTLYYWKSSSSGKKTAKTNTNEFLIDVDKGENYCFSVQAVIPSRTVNRKSTDSPVECMGQEKGEFREIC
Consider B9, for which, in data set [3], the “concentration … in 50 seconds” value amounted to 500 pM.

The record behind these values is patent US20030129193A1 (priority 2001, published 2003).
